Two molecules from US11419948B2, “Functionalized microgels with fibrin binding elements” (Georgia Tech Research Corporation, priority 2013, dated 2022) can be followed below.

One assay relates to traumatic injury. The assay can be described thus: Hemostasis in rodents following traumatic injury. It is filed as in vivo. The settings on record: 100 mg/kg intravenously.
The subject of another assay is platelet-poor plasma. In words: Gross clot contraction of platelet-poor plasma clots. The format is biochemical. An excerpt:
Clot collapse was characterized at the macroscopic level by performing standard gross clot contraction experiments routinely utilized by platelet biologists, Thomas, et al., BMC Cell Biology, 8:46 (2007); Suzuki-Inoue, et al., Thrombosis Research, 120:251-258 (2007). It was expected that particle deformability would play a large role in the ability of fibrin-binding microgels to induce gross clot deformation and architectural changes. Clots were created through the addition of 1 U/mL thrombin (final concentration) to platelet-poor plasma containing microgels of varying crosslinking. Clot collapse was observed within 48 hours in the presence of PLPs but not under any other conditions tested (FIG. 4B). […] Because natural platelet mediated contraction decreases clot degradation rates, we analyzed clot degradation rates in the absence or presence of PLPs. […] Because clot contraction was not observed in the presence of non-fibrin binding ULC microgels or in the presence of fibrin-binding BIS crosslinked microgels or hard PS particles, we conclude that, while enhancement of clotting in vitro only requires high affinity and multivalency for fibrin, particle deformability is critical to the ability of fibrin-binding particles to induce clot collapse. To fully recapitulate the hemostatic functions of platelets (enhancement of dotting and clot contraction following hemostasis) it appears that both high fibrin affinity and high particle deformability are required.

Another assay has as its target T1, fibrin D-Dimers (Homo sapiens, UniProt P02671+P02675+P02679, DEL433-453).
T1 construct: ELISAs against plates coated with adsorbed fibrin D-Dimers or E Regions
T1 sequence (P02671 130-216 limits assumed): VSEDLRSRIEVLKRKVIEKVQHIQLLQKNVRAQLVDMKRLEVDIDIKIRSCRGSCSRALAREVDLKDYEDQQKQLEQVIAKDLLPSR
T1 sequence (P02675 164-491 limits assumed): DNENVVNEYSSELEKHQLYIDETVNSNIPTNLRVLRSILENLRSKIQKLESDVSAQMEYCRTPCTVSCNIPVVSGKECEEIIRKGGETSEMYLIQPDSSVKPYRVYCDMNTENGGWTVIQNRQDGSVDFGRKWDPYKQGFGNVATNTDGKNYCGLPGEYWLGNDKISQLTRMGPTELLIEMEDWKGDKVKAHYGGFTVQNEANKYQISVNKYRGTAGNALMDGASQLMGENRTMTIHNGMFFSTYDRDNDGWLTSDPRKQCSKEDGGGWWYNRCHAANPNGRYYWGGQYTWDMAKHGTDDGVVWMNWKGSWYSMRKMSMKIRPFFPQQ
T1 sequence (P02679 114-432 limits assumed): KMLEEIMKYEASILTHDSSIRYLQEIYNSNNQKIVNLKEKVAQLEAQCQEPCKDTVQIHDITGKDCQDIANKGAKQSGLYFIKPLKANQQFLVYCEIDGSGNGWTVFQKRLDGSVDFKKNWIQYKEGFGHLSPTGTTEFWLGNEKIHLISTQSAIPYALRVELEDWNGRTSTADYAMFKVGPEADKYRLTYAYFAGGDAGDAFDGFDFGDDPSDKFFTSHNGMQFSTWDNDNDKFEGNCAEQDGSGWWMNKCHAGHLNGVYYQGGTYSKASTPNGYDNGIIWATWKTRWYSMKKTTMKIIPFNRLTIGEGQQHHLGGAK
The assay can be described thus: ELISA against adsorbed fibrin D-Dimers. It is filed as binding. The conditions noted are these: D-Dimer dilutions. How it is done: This was determined through ELISAs against plates coated with adsorbed fibrin D-Dimers or E Regions.
ELISA set-up and analysis was identical to that performed for the plasma-binding ELISA, the main exception being a substitution of human plasma dilutions for D-Dimer or E Region dilutions adsorbed to the 96-well plates. Both D-Dimer and […]

B1: PLPs: ultra-low crosslinked pNIPAm-AAc microgels conjugated to fibrin-specific sdFv H6 (conjugate)
VH: QVQLLESGGGLVQPGGSLRLSCAASGDRFTHNDMGWVRQAPGKGLEWVSTIPTTDGSTYYADSVKGRFTISRDNSKSTLYLQMNSLRAEDTAVYYCATGYMWKAPAYVKYWGQGTLVTVSSAAAEQKLISEEDLNSAAHYTDIG
For the molecule B1, the augmentation of hemostasis entry in the assay with traumatic injury is on record as “effective to augment hemostasis”. Also, the “overall degree of clot contraction” value in the assay with platelet-poor plasma (platelet-poor plasma with particles versus native platelet-rich plasma) is listed as “No significant differences”. In the assay with platelet-poor plasma (platelet-poor plasma, 1 U/mL thrombin), the “time to clot collapse” value is ≤ 48 h. For the same molecule, the “rate of induced clot collapse” value in the assay on platelet-poor plasma (versus native platelet-containing clots) is reported as “significantly less”.

B2: H6: fibrin-specific human sdFv clone from phage biopanning, SEQ ID NO: 1 (protein)
VHH: QVQLLESGGGLVQPGGSLRLSCAASGDRFTHNDMGWVRQAPGKGLEWVSTIPTTDGSTYYADSVKGRFTISRDNSKSTLYLQMNSLRAEDTAVYYCATGYMWKAPAYVKYWGQGTLVTVSSAAAEQKLISEEDLNSAAHYTDIG
Take B2: in the assay with fibrin D-Dimers, the “binding to D-Dimer” value was “negligible binding”.
